For the series, the system named is VanR (phosphorylated) (Streptomyces coelicolor M600). The experiment in a line: cell_activity. The conditions noted are these: indirect: growth arrest about 18 h with 20 ug/ml vancomycin; 64 pM little effect.

For the sequence “ATATCTATATGAAGCGACGTGGTCGATGAGCCGCAGCGTTTTCGCTGCGGCTCATCGACCACGTCGCTTCATATAGATATAGTTTTCT [vanH5 dumbbell decoy]”, the activity was determined as 256 pM.

The values above are taken from patent publication US20180002740.
